Laboratory results taken from US20030148958A1 (PROCTER AND GAMBLE, published 2003).
Positions count from the first letter of the chain named. Ends that are not written are not given here.

T1: corticotropin releasing factor 2 receptor
T1 sequence (Q13324 whole entry, species assumed, looked up): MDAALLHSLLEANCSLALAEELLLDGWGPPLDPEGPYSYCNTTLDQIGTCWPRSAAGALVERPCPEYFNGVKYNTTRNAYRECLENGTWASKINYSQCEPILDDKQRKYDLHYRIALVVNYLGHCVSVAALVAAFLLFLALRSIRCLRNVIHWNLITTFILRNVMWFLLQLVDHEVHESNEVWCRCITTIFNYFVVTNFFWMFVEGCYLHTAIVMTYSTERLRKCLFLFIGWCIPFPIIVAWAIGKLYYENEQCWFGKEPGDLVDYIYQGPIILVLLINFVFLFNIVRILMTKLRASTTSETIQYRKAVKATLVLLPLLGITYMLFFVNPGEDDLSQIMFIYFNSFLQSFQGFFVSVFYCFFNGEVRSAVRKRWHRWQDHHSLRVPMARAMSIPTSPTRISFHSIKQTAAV

B1: SEQ ID NO 107 (peptide)
peptide: IVLSLDVPIGLLQILLEQEKARAAREQATTNARILARV-NH2
B2: SEQ ID NO 3 (peptide)
peptide: IVLSLDVPIGLLQILLEQEKARAAREQATTNARILARV-NH2
B3: SEQ ID NO 25 (peptide)
peptide: ZGPPISIDLSIGLLRKMIEIEKQEKEKQQAANNRLLLDTI
modifications: C-terminal amide
B4: SEQ ID NO 49 (peptide)
peptide: B3 peptide with S10P, I11T, G12D
modifications: C-terminal amide
B5: SEQ ID NO 31 (peptide)
peptide: B3 peptide with S10P, G12V
modifications: C-terminal amide
B6: SEQ ID NO 32 (peptide)
peptide: B3 peptide with S10P, I11A, G12Y
modifications: C-terminal amide
B7: SEQ ID NO 48 (peptide)
peptide: B3 peptide with S10P, I11E, G12Y
modifications: C-terminal amide
B8: SEQ ID NO 40 (peptide)
peptide: B3 peptide with S10P, I11Y, G12Y
modifications: C-terminal amide
B9: SEQ ID NO 44 (peptide)
peptide: B3 peptide with S10P, I11T, G12F
modifications: C-terminal amide
B10: SEQ ID NO 39 (peptide)
peptide: B3 peptide with S10P, I11V, G12Y
modifications: C-terminal amide
B11: SEQ ID NO 28 (peptide)
peptide: B3 peptide with S10P, G12D
modifications: C-terminal amide
B12: SEQ ID NO 46 (peptide)
peptide: B3 peptide with S10P, I11T, G12V
modifications: C-terminal amide
B13: SEQ ID NO 34 (peptide)
peptide: B3 peptide with S10P, G12K
modifications: C-terminal amide
B14: SEQ ID NO 27 (peptide)
peptide: B3 peptide with S10P, I11Q, G12Y
modifications: C-terminal amide
B15: SEQ ID NO 198 (peptide)
peptide: B3 peptide with S10P, I11Q, G12Q
modifications: C-terminal amide
B16: SEQ ID NO 38 (peptide)
peptide: B3 peptide with S10P, G12R
modifications: C-terminal amide
B17: SEQ ID NO 197 (peptide)
peptide: B3 peptide with S10P, I11Q, G12V
modifications: C-terminal amide
B18: SEQ ID NO 26 (peptide)
peptide: B3 peptide with S10P, G12P
modifications: not fully specified; C-terminal amide
B19: SEQ ID NO 50 (peptide)
peptide: B3 peptide with S10P, I11T, G12I
modifications: C-terminal amide
B20: SEQ ID NO 37 (peptide)
peptide: B3 peptide with S10P, G12N
modifications: C-terminal amide
B21: SEQ ID NO 41 (peptide)
peptide: B3 peptide with S10P, I11T, G12W
modifications: C-terminal amide
B22: SEQ ID NO 29 (peptide)
peptide: B3 peptide with S10P, G12F
modifications: C-terminal amide
B23: SEQ ID NO 42 (peptide)
peptide: B3 peptide with S10P, I11T, G12T
modifications: C-terminal amide
B24: SEQ ID NO 36 (peptide)
peptide: B3 peptide with S10P, G12I
modifications: C-terminal amide
B25: SEQ ID NO 47 (peptide)
peptide: B3 peptide with S10P, G12A
modifications: C-terminal amide
B26: SEQ ID NO 45 (peptide)
peptide: B3 peptide with S10P, I11T, G12K
modifications: C-terminal amide
B27: SEQ ID NO 43 (peptide)
peptide: B3 peptide with S10P, I11T, G12S
modifications: C-terminal amide
B28: SEQ ID NO 30 (peptide)
peptide: B3 peptide with I11L, G12E, R34A, D38A
modifications: C-terminal amide
B29: SEQ ID NO 35 (peptide)
peptide: B3 peptide with S10P, G12L
modifications: C-terminal amide
B30: SEQ ID NO 121 (peptide)
peptide: IVLSLDVPIGLLQILLEQEKARAAREQATTNARILARV-NH2
B31: SEQ ID NO 89 (peptide)
peptide: SQEPPISLDLPLELLREVLEMTKADQLAQQAHSNRKLLDIA-NH2

Each binder was assayed against T1, corticotropin releasing factor 2 … (assay: cell-based or functional assay).
Throughout, for CRF1R Emax: reference of the scale not given here.
Throughout, for CRF2R Emax: reference of the scale not given here.

Row | Binder | CRF2R EC50 [nM] | CRF2R Emax [%]
1 | B1 | 12.1 | 
2 | B2 | 12.1 | 
3 | B3 | 81 | 81.9
4 | B4 | > 100 | 37
5 | B5 | 30.8 | 100
6 | B6 | 20.2 | 98
7 | B7 | 100 | 14
8 | B8 | 6.95 | 93
9 | B9 | 19.1 | 87
10 | B10 | 58.2 | 94
11 | B11 | 100 | 15
12 | B12 | > 100 | 100
13 | B13 | > 100 | 45
14 | B14 | 10.7 | 96
15 | B15 | 29.9 | 100
16 | B16 | 71.9 | 91

Row | Binder | CRF2R EC50 [nM] | CRF2R Emax [%]
17 | B17 | 48.1 | 94
18 | B18 | 91.8 | 86
19 | B19 | 19 | 94
20 | B20 | > 100 | 51
21 | B21 | 18.3 | 100
22 | B22 | 16 | 100
23 | B23 | > 100 | 88
24 | B24 | 14.8 | 73
25 | B25 | > 100 | 66
26 | B26 | > 100 | 44
27 | B27 | > 100 | 67
28 | B28 | 18.7 | 85.5
29 | B29 | 15.6 | 88
30 | B30 | 5.67 | 
31 | B31 | 100 | 12.7

Each binder was assayed against corticotropin releasing factor 1 receptor (assay: cell-based or functional assay).

Row | Binder | CRF1R EC50 [nM] | CRF1R Emax [%]
32 | B3 | 677 | 92.3
33 | B4 | > 1000 | 15
34 | B5 | > 1000 | 18
35 | B6 | 606 | 94
36 | B7 | 1000 | 21
37 | B8 | 102 | 99
38 | B9 | 944 | 64
39 | B10 | 1000 | 63
40 | B11 | > 1000 | 2
41 | B12 | > 1000 | 17
42 | B13 | > 1000 | 11
43 | B14 | 325 | 100
44 | B16 | > 1000 | 11
45 | B18 | > 1000 | 16
46 | B19 | > 1000 | 42
47 | B20 | > 1000 | 5
48 | B21 | > 1000 | 43
49 | B22 | > 1000 | 79
50 | B23 | > 1000 | 10
51 | B24 | > 1000 | 33
52 | B25 | 1000 | 12
53 | B26 | > 1000 | 7
54 | B27 | > 1000 | 10
55 | B28 | 100 | 100
56 | B29 | > 1000 | 74
